Experimental data reported in patent publication US20240034790A1 (INNOBATION BIO, published 2024).
Residue numbers refer to the chain shown, from its start.

B1: 7C7 antibody (antibody, V domains shown)
VH: EVQLQQSGPELVKPGASVRMSCKASGYTFTSYVMHWVKQKPGQGLEWIGYINPYNDGTKYNEKFKGKSTLTSDKSSSTAYMELSSLTSEDSAVYCCARGRNRYDSWFAYWGQGTLVTVSA
VL: DIQMTQTTSSLSASLGDRVTISCRASQDISNYLNWYQQKPDGTVKLLIYYTSRLHSGVPSRFSGSGSGTDYSLTISNLEQEDIATYFCQQGNTLPWTFGGGTKLEIK
notes: Monoclonal antibody from a hybridoma (mouse myeloma fusion), detected with anti-mouse IgG; In the ELISA hybridoma culture solution was used
B2: 5A4 antibody (antibody, V domains shown)
VH: QVQLQQPGPELVRPGASVKMSCKASGYTFTNYWIHWVKQRPGQGLEWIGMIDPSNSATRLNQKFKDKATLNVDKSSNTAYMQLSSLTSEDSAVYYCARGGFAFDSWGQGTTLTVSS
VL: DVLMTQTPLSLPVSLGDQASISCRSSQSLVHSNGNTYLHWYLQKPGQSPKLLIYKVSNRFSGVPDRFSGSGSGTDFTLKISRVEAEDLGVYFCSQSTHVPWTFGGGTKLEIK
notes: Hybridoma monoclonal antibody detected with anti-mouse IgG
B3: 5H4 antibody (antibody, V domains shown)
VH: QVQLQQPGAELVKPGTSVKMSCKASGYTFTNYWMHWVKQRPGQVLEWIGVIDPSDSYTSYNQKFKGKATLTVDTSSTTAYMQLSSLTSEDSAVYYCTRGGKRAMDYWGQGTSVTVSS
VL: B2 VL with W101F, G105S
notes: as for B2
B4: 1E7 antibody (antibody, V domains shown)
VH: EVQLQQSGPELIKPGASVKMSCKASGYIFTSYVVYWVKQKPGQGLEWIGYINPYNDGTKYNEKFKGKATLTSYKSSSTAYMELSSLTSADSAVYYCARGGFTTDYWGQGTTLTVSS
VL: B2 VL with W101Y
notes: as for B2
B5: 4E12 antibody (antibody, V domains shown)
VH: QIQFAQSGPELKKSGETVKISCRASGYTFTNYGMNWVKQAPGKGLKWMGWINTYTGEPTYADDFKGRFAFSLETSASTAYLQINNLKNEDMATYFCARGGGRGAMDYWGQGTTLTVSS
VL: B2 VL with L29I, H39D, N58K, F92Y, S94F, S96G, T97S, W101F, G105S
notes: as for B2
B6: 3A5 antibody (antibody, V domains shown)
VH: B3 VH with Q1E, T16A, N31S, V37M, K38N, V44G, T77S, T97A
VL: B2 VL with W101F, G105S
notes: as for B2
B7: 3H3 antibody (antibody, V domains shown)
VH: B2 VH with Q1E, I34M, A57E, Y95S
VL: B2 VL with S32N, S68R
notes: as for B2

The molecules below were run against T1, CD47 protein (Acrobiosystems, cat#CD7-HA2E9) (UniProt Q08722 19-139) (assay: ELISA, CD47 protein coated 100 ng/well, 3 ul hybridoma culture solution, anti-mIgG-HRP).
T1 construct: Bought recombinant protein, used as immunogen and as ELISA coating (100 ng/well); also called CD47 peptide; CD47 antigen
T1 sequence (Q08722 19-139 limits assumed): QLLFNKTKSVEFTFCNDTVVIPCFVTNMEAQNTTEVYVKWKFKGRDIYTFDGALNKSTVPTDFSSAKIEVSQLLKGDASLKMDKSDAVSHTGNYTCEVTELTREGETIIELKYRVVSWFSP
Description: 3 μl of hybridoma cell culture solution of each clone for producing 7C7, 5H4, 5A4, 4E12, 3H3, 3A5, or 1E7 antibody was treated in each well, and then reacted at room temperature for 2 hours, and then washed 3 times with 1× PBST. Secondary antibody ([…], 1:10,000) was treated and reacted at room temperature for 30 minutes, washed 3 times with 1× PBST, and then treated with TMB for color development and reacted at room temperature for 5 minutes. Finally, the reaction was terminated by treatment with a stop solution of 1N H₂SO₄, and then the absorbance was measured at 450 nm.

OD450 measurements [OD450]	Molecule
1.98	B1
1.93	B2
1.91	B3
2.14	B4
2.15	B5
2.01	B6
1.97	B7

What follows are molecules tested against T2, CD47 on breast cancer cell line MCF-7 (UniProt Q08722 19-323, limits assumed) (assay: flow cytometry on MCF-7 cells, secondary antibody alone (background control)).
T2 construct: whole, on cells; Endogenous CD47 of MCF-7 cells; also called CD47-expressing tumor cells (MCF-7); CD47-expressing cells
T2 sequence (Q08722 19-323 limits assumed): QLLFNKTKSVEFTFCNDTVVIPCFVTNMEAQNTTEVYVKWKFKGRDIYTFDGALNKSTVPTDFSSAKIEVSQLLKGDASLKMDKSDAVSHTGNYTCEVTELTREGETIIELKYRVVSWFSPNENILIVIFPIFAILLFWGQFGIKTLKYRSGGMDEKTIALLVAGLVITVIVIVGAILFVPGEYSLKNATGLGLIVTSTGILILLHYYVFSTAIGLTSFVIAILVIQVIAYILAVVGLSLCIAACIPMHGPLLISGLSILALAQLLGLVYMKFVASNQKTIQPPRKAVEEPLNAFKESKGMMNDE

Mean	Median	Molecule
80	73.9	PE-conjugated goat anti-mouse IgG (Biolegend Inc., cat# 405307) (antibody)

These molecules were tested against T2, CD47 on breast cancer cell line MCF-7 (assay: flow cytometry on MCF-7 cells, 1 ug antibody, PE anti-mouse IgG).
Description: First, 1×10⁷ of breast cancer cell line MCF-7 expressing CD47 and 1 μg of 7C7, 5H4, […], 3H3, 3A5, and 1E7 antibody were reacted for 30 minutes, respectively, and then stained on surface with a secondary antibody. After staining, it was measured by flow cytometry.
As a positive control, CD47 antibody (Biolegend PE anti-human CD47, cat# 323108, 5 μl) was used, and as a secondary antibody, PE-conjugated anti-mouse IgG antibody (PE-conjugated goat anti-mouse IgG; Biolegend Inc., cat# 405307, USA, 5 μl) was used.

Mean	Median	Molecule
6820	6110	B1
16000	14700	B2
15500	14300	B3
16100	14900	B4
6030	5380	B5
15000	13900	B6
18000	16500	B7
